The source of these data is patent publication US20190153112A1 (IMMUTEP S A S, published 2019).

Usually EC50 stands for the concentration at which the effect is half-maximal. High values mean lower potency in that assay, low ones higher potency in that assay.

The target in test [1] is human LAG-3 protein (Lymphocyte activation gene-3) on the cell surface (human) (UniProt P18627). Nature of the test: flow cytometry on CD8+ cells of SEB-stimulated PBMCs (Donor 1), from Table 13. A general note: Flow cytometry measures light scatter and fluorescence of single cells or particles in a stream.
human LAG-3 protein (Lymphocyte activation gene-3) on the cell surface (human), sequence (P18627 other isoform, or with tags, fused parts or gaps): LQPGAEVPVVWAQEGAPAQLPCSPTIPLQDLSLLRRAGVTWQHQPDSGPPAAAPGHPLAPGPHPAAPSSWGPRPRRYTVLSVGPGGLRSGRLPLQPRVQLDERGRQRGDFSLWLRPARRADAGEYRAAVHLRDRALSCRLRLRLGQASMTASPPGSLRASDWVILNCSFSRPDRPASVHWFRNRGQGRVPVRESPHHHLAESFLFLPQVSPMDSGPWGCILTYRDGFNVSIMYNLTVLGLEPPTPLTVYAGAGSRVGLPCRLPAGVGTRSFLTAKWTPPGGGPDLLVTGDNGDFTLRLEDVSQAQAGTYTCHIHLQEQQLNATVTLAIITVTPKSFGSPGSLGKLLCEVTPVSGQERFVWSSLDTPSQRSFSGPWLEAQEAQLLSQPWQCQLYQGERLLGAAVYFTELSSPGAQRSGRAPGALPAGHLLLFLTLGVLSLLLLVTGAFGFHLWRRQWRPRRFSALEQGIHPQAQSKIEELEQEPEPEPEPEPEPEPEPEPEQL
Test [2] has the same target. The experiment in a line: flow cytometry on LAG-3-transfected CHO cells; antibody 2000 ng/ml.
For test [3] the target is unchanged. The experiment in a line: flow cytometry on CD4+ cells of SEB-stimulated PBMCs, mean of three donors.
Test [4] has the same target. The experiment in a line: flow cytometry on CD4+ cells of SEB-stimulated PBMCs (Donor 1); antibody 0 ng/ml (no-antibody background).
The target is the same in test [5]. The experiment in a line: flow cytometry on CD4+ cells of SEB-stimulated PBMCs (Donor 1), from Table 13.
The target of test [6] is IMP321 (recombinant soluble human LAG-3Ig fusion protein) (human) (UniProt P18627). The experiment in a line: FACS, LAG-3Ig-Alexa 488 (1 µg/ml) with antibody 0 ng/ml (no-antibody value), bound to Raji (MHC class II+) cells.
IMP321 (recombinant soluble human LAG-3Ig fusion protein) (human), sequence (P18627 23-450): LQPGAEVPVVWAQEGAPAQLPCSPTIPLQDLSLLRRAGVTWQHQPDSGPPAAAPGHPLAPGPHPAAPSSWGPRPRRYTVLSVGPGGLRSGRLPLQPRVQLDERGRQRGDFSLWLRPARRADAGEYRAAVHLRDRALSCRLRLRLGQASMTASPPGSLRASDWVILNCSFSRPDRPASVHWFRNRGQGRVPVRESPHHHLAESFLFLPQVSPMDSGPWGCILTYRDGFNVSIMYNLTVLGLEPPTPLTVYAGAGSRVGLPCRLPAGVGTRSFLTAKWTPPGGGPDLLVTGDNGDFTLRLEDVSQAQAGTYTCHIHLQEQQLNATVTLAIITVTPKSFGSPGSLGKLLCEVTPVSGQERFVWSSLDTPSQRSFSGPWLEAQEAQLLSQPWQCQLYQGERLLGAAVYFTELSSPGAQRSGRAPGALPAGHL
Test [7] shares this target. Nature of the test: cell-based or functional assay.
Test [8] concerns the target human LAG-3 protein (Lymphocyte activation gene-3) on the cell surface (human) (UniProt P18627). The experiment in a line: flow cytometry on CD4+ cells of SEB-stimulated PBMCs (Donor 1); antibody 7 ng/ml.
Test [9] has the same target. The experiment in a line: flow cytometry on LAG-3-transfected CHO cells; antibody 20 ng/ml.
For test [10] the target is unchanged. Nature of the test: flow cytometry on LAG-3-transfected CHO cells; antibody 500 ng/ml.
For test [11] the target is unchanged. Nature of the test: flow cytometry on LAG-3-expressing CHO cells, from Table 12.
Test [12] has the same target. Nature of the test: flow cytometry on CD8+ cells of SEB-stimulated PBMCs (Donor 1); antibody 29 ng/ml.
Test [13] has the same target. Nature of the test: flow cytometry on CD8+ cells of SEB-stimulated PBMCs (Donor 1); antibody 126 ng/ml.
Test [14] shares this target. The experiment in a line: flow cytometry on CD4+ cells of SEB-stimulated PBMCs (Donor 1); antibody 126 ng/ml.
Test [15] shares this target. The experiment in a line: flow cytometry on CD4+ cells of SEB-stimulated PBMCs (Donor 1); antibody 0.4 ng/ml.
Test [16] concerns the target IMP321 (recombinant soluble human LAG-3Ig fusion protein) (human) (UniProt P18627). The experiment in a line: FACS, LAG-3Ig-Alexa 488 (1 µg/ml) pre-incubated with antibody 297 ng/ml, then bound to Raji (MHC class II+) cells.

For “antagonistic anti-LAG-3 mouse monoclonal antibody 17B4”, the EC50 turned out to be 0.7 nM in test [1], 0.8 nM in test [3], 0.5 nM in test [5] and 0.7 nM in test [11]. The MFI worked out at 5480 MFI in test [2]; 106 MFI in test [4]; 324 MFI in [8]; 1380 MFI in [9]; 4760 MFI in test [10]; 1400 MFI in [12]. The MFI in test [13] was 2840 MFI; in test [14], 1240 MFI; in test [15], 143 MFI. In addition, the MFI of sLAG-3Ig-Alexa 488 stood at 284 MFI in test [6] and 73 MFI in test [16]. In [7], the [CCL4] in THP-1 monocytic cells supernatant; IMP321 20 ng/ml pre-incubated with antibody 2 ng/ml was 1960 pg/mL. Further, the [CCL4] in THP-1 monocytic cells supernatant; IMP321 20 ng/ml pre-incubated with antibody 20 ng/ml in [7] amounted to 1550 pg/mL. In addition, the [CCL4] in THP-1 monocytic cells supernatant; IMP321 20 ng/ml pre-incubated with antibody 200 ng/ml in test [7] stood at 860 pg/mL. In addition, the [CCL4] in THP-1 monocytic cells supernatant; IMP321 20 ng/ml pre-incubated with antibody 2000 ng/ml in test [7] amounted to 947 pg/mL. Also, in [7], the [CCL4] in THP-1 monocytic cells supernatant; IMP321 20 ng/ml pre-incubated with antibody 20000 ng/ml worked out at 860 pg/mL. The [CCL4] in THP-1 monocytic cells supernatant; IMP321 20 ng/ml, antibody 0 ng/ml (no-antibody value) in [7] amounted to 2110 pg/mL.
